In data set [1] the test system is HeLa Kyoto. The experiment in a line: solubility change mitosis vs G1/S (difference of NP-40 vs SDS log2 ratios) (log2 ratio difference); higher = more soluble in mitosis.
The subject of data set [2] is HeLa Kyoto. The experiment in a line: solubility in G1/S (NP-40 vs SDS abundance) (log2 ratio); higher = more soluble. Conditions: cell cycle stage: G1/S.
The subject of data set [3] is HeLa Kyoto. Put plainly: thermal stability score vs G1/S (z-score of summed log2 fold changes over temperatures); higher = more thermally stable than in G1/S.
Data set [4] deals with HeLa Kyoto. Put plainly: melting temperature (median over replicates), in situ; higher = more thermally stable.
The mark [5] stands for this setting: cell cycle stage: early G1 (4.5 h after nocodazole release).

The results in this text go back to the supplement of paper PMC5998384.
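For melting temperature (median over replicates), in situ in this document: HeLa Kyoto cells synchronized by double thymidine or nocodazole block, proteins quantified by TMT10plex mass spectrometry, three independent biological replicates.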
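For solubility change mitosis vs G1/S (difference of NP-40 vs SDS log2 ratios) in this document: synchronized HeLa Kyoto cells (double thymidine block for G1/S, nocodazole release for mitosis), protein amounts in NP-40 versus SDS lysates quantified by mass spectrometry, three biological replicates.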
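For solubility in G1/S (NP-40 vs SDS abundance) in this document: HeLa Kyoto cells arrested at G1/S by double thymidine block, proteins quantified by TMT10plex mass spectrometry in mild NP-40 versus SDS extracts, three biological replicates.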
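For thermal stability score vs G1/S (z-score of summed log2 fold changes over temperatures) in this document: synchronized HeLa Kyoto cells, proteins quantified by TMT10plex mass spectrometry, three biological replicates, mitosis taken 0.5 h after nocodazole release, G1/S directly after double thymidine block.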

In the case of “MPLHQLGDKPLTFPSPNSAMENGLDHTPPSRRASPGTPLSPGSLRSAAHSPLDTSKQPLCQLWAEKHGARGTHEVRYVSAGQSVACGWWAFAPPCLQVLNTPKGILFFLCAAAFLQGMTVNGFINTVITSLERRYDLHSYQSGLIASSYDIAACLCLTFVSYFGGSGHKPRWLGWGVLLMGTGSLVFALPHFTAGRYEVELDAGVRTCPANPGAVCADSTSGLSRYQLVFMLGQFLHGVGATPLYTLGVTYLDENVKSSCSPVYIAIFYTAAILGPAAGYLIGGALLNIYTEMGRRTELTTESPLWVGAWWVGFLGSGAAAFFTAVPILGYPRQLPGSQRYAVMRAAEMHQLKDSSRGEASNPDFGKTIRDLPLSIWLLLKNPTFILLCLAGATEATLITGMSTFSPKFLESQFSLSASEAATLFGYLVVPAGGGGTFLGGFFVNKLRLRGSAVIKFCLFCTVVSLLGILVFSLHCPSVPMAGVTASYGGSLLPEGHLNLTAPCNAACSCQPEHYSPVCGSDGLMYFSLCHAGCPAATETNVDGQKVYRDCSCIPQNLSSGFGHATAGKCTSTCQRKPLLLVFIFVVIFFTFLSSIPALTATLRCVRDPQRSFALGIQWIVVRILGGIPGPIAFGWVIDKACLLWQDQCGQQGSCLVYQNSAMSRYILIMGLLYKVLGVLFFAIACFLYKPLSESSDGLETCLPSQSSAPDSATDSQLQSSV [SLCO4A1]”, the “solubility change mitosis (log2)” value in data set [1] was -0.143. In data set [2], the “solubility in G1/S (log2)” value is 0.576. The thermal stability score in data set [3] (setting [5]) was -0.978; in data set [3] (cell cycle stage: mitosis), -0.221. Besides, the melting temperature amounted to 55.2 °C in data set [4] (cell cycle stage: G1/S) and 56.9 °C in data set [4] (cell cycle stage: mitosis).

On to “MPLKWKTSSPAIWKFPVPVLKTSRSTPLSPAYISLVEEEDQHMKLSLGGSEMGLSSHLQSSKAGPTRIFTSNTHSSVVLQGFDQLRLEGLLCDVTLMPGDTDDAFPVHRVMMASASDYFKAMFTGGMKEQDLMCIKLHGVSKVGLRKIIDFIYTAKLSLNMDNLQDTLEAASFLQILPVLDFCKVFLISGVTLDNCVEVGRIANTYNLTEVDKYVNSFVLKNFPALLSTGEFLKLPFERLAFVLSSNSLKHCTELELFKATCRWLRLEEPRMDFAAKLMKNIRFPLMTPQELINYVQTVDFMRTDNTCVNLLLEASNYQMMPYMQPVMQSDRTAIRSDTTHLVTLGGVLRQQLVVSKELRMYDEKAHEWKSLAPMDAPRYQHGIAVIGNFLYVVGGQSNYDTKGKTAVDTVFRFDPRYNKWMQVASLNEKRTFFHLSALKGYLYAVGGRNAAGELPTVECYNPRTNEWTYVAKMSEPHYGHAGTVYGGVMYISGGITHDTFQKELMCFDPDTDKWIQKAPMTTVRGLHCMCTVGERLYVIGGNHFRGTSDYDDVLSCEYYSPILDQWTPIAAMLRGQSDVGVAVFENKIYVVGGYSWNNRCMVEIVQKYDPDKDEWHKVFDLPESLGGIRACTLTVFPPEETTPSPSRESPLSAP [KLHL13]”, for which the “solubility change mitosis (log2)” value in data set [1] is -0.128. The “solubility in G1/S (log2)” value in data set [2] was -0.13. Also, the thermal stability score in data set [3] (setting [5]) was -0.01; in data set [3] (cell cycle stage: mitosis) it was 0.108. Besides, the melting temperature in data set [4] (cell cycle stage: G1/S) is 52.2 °C; in data set [4] (cell cycle stage: mitosis), 50.4 °C.

For “MPLLTQQIQDEDDQYSLVASLDNVRNLSTILKAIHFREHATCFATKNGIKVTVENAKCVQANAFIQAGIFQEFKVQEESVTFRINLTVLLDCLSIFGSSPMPGTLTALRMCYQGYGYPLMLFLEEGGVVTVCKINTQEPEETLDFDFCSTNVINKIILQSEGLREAFSELDMTSEVLQITMSPDKPYFRLSTFGNAGSSHLDYPKDSDLMEAFHCNQTQVNRYKISLLKPSTKALVLSCKVSIRTDNRGFLSLQYMIRNEDGQICFVEYYCCPDEEVPESES [RAD1]”, in data set [1], the “solubility change mitosis (log2)” value is -0.225. Further, in data set [2], the “solubility in G1/S (log2)” value was -0.0871. Also, the thermal stability score was found to be 2.13 in data set [3] (setting [5]) and 0.628 in data set [3] (cell cycle stage: mitosis). The figures for the melting temperature in data set [4] (cell cycle stage: G1/S) and in data set [4] (cell cycle stage: mitosis) were 51.4 °C and 51.2 °C, respectively.

Turning to “MPLRLDIKRKLTARSDRVKSVDLHPTEPWMLASLYNGSVCVWNHETQTLVKTFEVCDLPVRAAKFVARKNWVVTGADDMQIRVFNYNTLERVHMFEAHSDYIRCIAVHPTQPFILTSSDDMLIKLWDWDKKWSCSQVFEGHTHYVMQIVINPKDNNQFASASLDRTIKVWQLGSSSPNFTLEGHEKGVNCIDYYSGGDKPYLISGADDRLVKIWDYQNKTCVQTLEGHAQNVSCASFHPELPIIITGSEDGTVRIWHSSTYRLESTLNYGMERVWCVASLRGSNNVALGYDEGSIIVKLGREEPAMSMDANGKIIWAKHSEVQQANLKAMGDAEIKDGERLPLAVKDMGSCEIYPQTIQHNPNGRFVVVCGDGEYIIYTAMALRNKSFGSAQEFAWAHDSSEYAIRESNSIVKIFKNFKEKKSFKPDFGAESIYGGFLLGVRSVNGLAFYDWDNTELIRRIEIQPKHIFWSDSGELVCIATEESFFILKYLSEKVLAAQETHEGVTEDGIEDAFEVLGEIQEIVKTGLWVGDCFIYTSSVNRLNYYVGGEIVTIAHLDRTMYLLGYIPKDNRLYLGDKELNIISYSLLVSVLEYQTAVMRRDFSMADKVLPTIPKEQRTRVAHFLEKQGFKQQALTVSTDPEHRFELALQLGELKIAYQLAVEAESEQKWKQLAELAISKCQFGLAQECLHHAQDYGGLLLLATASGNANMVNKLAEGAERDGKNNVAFMSYFLQGKVDACLELLIRTGRLPEAAFLARTYLPSQVSRVVKLWRENLSKVNQKAAESLADPTEYENLFPGLKEAFVVEEWVKETHADLWPAKQYPLVTPNEERNVMEEGKDFQPSRSTAQQELDGKPASPTPVIVASHTANKEEKSLLELEVDLDNLELEDIDTTDINLDEDILDD [COPB2]”, the “solubility change mitosis (log2)” value in data set [1] was -0.0942. Also, the “solubility in G1/S (log2)” value in data set [2] is -0.298. Also, the thermal stability score is -0.168 in data set [3] (setting [5]) and -0.888 in data set [3] (cell cycle stage: mitosis). Further, the figures for the melting temperature in data set [4] (cell cycle stage: G1/S) and in data set [4] (cell cycle stage: mitosis) were 51.7 °C and 51.3 °C, respectively.

“MPLVTRNIEPRHLCRQTLPSVRSELECVTNITLANVIRQLGSLSKYAEDIFGELFTQANTFASRVSSLAERVDRLQVKVTQLDPKEEEVSLQGINTRKAFRSSTIQDQKLFDRNSLPVPVLETYNTCDTPPPLNNLTPYRDDGKEALKFYTDPSYFFDLWKEKMLQDTKDIMKEKRKHRKEKKDNPNRGNVNPRKIKTRKEEWEKMKMGQEFVESKEKLGTSGYPPTLVYQNGSIGCVENVDASSYPPPPQSDSASSPSPSFSEDNLPPPPAEFSYPVDNQRGSGLAGPKRSSVVSPSHPPPAPPLGSPPGPKPGFAPPPAPPPPPPPMIGIPPPPPPVGFGSPGTPPPPSPPSFPPHPDFAAPPPPPPPPAADYPTLPPPPLSQPTGGAPPPPPPPPPPGPPPPPFTGADGQPAIPPPLSDTTKPKSSLPAVSDARSDLLSAIRQGFQLRRVEEQREQEKRDVVGNDVATILSRRIAVEYSDSEDDSSEFDEDDWSD [WASF2]”: the “solubility change mitosis (log2)” value in data set [1] is -0.146. Besides, in data set [2], the “solubility in G1/S (log2)” value came to 0.196. Besides, the thermal stability score in data set [3] (setting [5]) was found to be 0.736; in data set [3] (cell cycle stage: mitosis), 1.04. Besides, the melting temperature was 51.8 °C in data set [4] (cell cycle stage: G1/S) and 51.5 °C in data set [4] (cell cycle stage: mitosis).

As for “MPMYQVKPYHGGGAPLRVELPTCMYRLPNVHGRSYGPAPGAGHVQEESNLSLQALESRQDDILKRLYELKAAVDGLSKMIQTPDADLDVTNIIQADEPTTLTTNALDLNSVLGKDYGALKDIVINANPASPPLSLLVLHRLLCEHFRVLSTVHTHSSVKSVPENLLKCFGEQNKKQPRQDYQLGFTLIWKNVPKTQMKFSIQTMCPIEGEGNIARFLFSLFGQKHNAVNATLIDSWVDIAIFQLKEGSSKEKAAVFRSMNSALGKSPWLAGNELTVADVVLWSVLQQIGGCSVTVPANVQRWMRSCENLAPFNTALKLLK [AIMP2]”, the “solubility change mitosis (log2)” value in data set [1] came out at 0.104. Besides, the “solubility in G1/S (log2)” value in data set [2] was found to be 0.321. The thermal stability score was 0.153 in data set [3] (setting [5]) and 1.22 in data set [3] (cell cycle stage: mitosis). The melting temperature in data set [4] (cell cycle stage: G1/S) was determined as 48.9 °C; in data set [4] (cell cycle stage: mitosis), 49.6 °C.

In the case of “MPPAVGGPVGYTPPDGGWGWAVVIGAFISIGFSYAFPKSITVFFKEIEGIFHATTSEVSWISSIMLAVMYGGGPISSILVNKYGSRIVMIVGGCLSGCGLIAASFCNTVQQLYVCIGVIGGLGLAFNLNPALTMIGKYFYKRRPLANGLAMAGSPVFLCTLAPLNQVFFGIFGWRGSFLILGGLLLNCCVAGALMRPIGPKPTKAGKDKSKASLEKAGKSGVKKDLHDANTDLIGRHPKQEKRSVFQTINQFLDLTLFTHRGFLLYLSGNVIMFFGLFAPLVFLSSYGKSQHYSSEKSAFLLSILAFVDMVARPSMGLVANTKPIRPRIQYFFAASVVANGVCHMLAPLSTTYVGFCVYAGFFGFAFGWLSSVLFETLMDLVGPQRFSSAVGLVTIVECCPVLLGPPLLGRLNDMYGDYKYTYWACGVVLIISGIYLFIGMGINYRLLAKEQKANEQKKESKEEETSIDVAGKPNEVTKAAESPDQKDTDGGPKEEESPV [SLC16A1]”, in data set [1], the “solubility change mitosis (log2)” value was -0.115. Besides, the “solubility in G1/S (log2)” value in data set [2] came out at 0.186. Moreover, the figures for the thermal stability score in data set [3] (setting [5]) and in data set [3] (cell cycle stage: mitosis) were -4.15 and -10.4, respectively. The values for the melting temperature in data set [4] (cell cycle stage: G1/S) and in data set [4] (cell cycle stage: mitosis) were 55 °C and 57 °C, respectively.
